Source: US20230287118A1 (published 2023)
Changes are numbered by the printed parent chain.

Key:
[1] = biological target: T1, human MCSP (melanoma-associated chondroitin sulfate proteoglycan, chondroitin sulfate proteoglycan 4) (human, UniProt Q6UVK1 30-2322); test: cell-based or functional assay
[2] = biological target: T1, human MCSP (melanoma-associated …); test: flow cytometry on MCSP-expressing MV-3 cells
human CD3 [3] = biological target: T2, human CD3 (human, UniProt P07766 23-207); test: flow cytometry on Jurkat-NFAT cells
T2 construct: In the assays it is the native CD3 complex on Jurkat or Jurkat-NFAT cells; also called CD3 epsilon

human CD3 [4] = biological target: T2, human CD3; test: cell-based or functional assay
human CD20 [5] = biological target: T3, human CD20 (human, UniProt P11836 1-297); test: cell-based or functional assay
T3 sequence (looked up): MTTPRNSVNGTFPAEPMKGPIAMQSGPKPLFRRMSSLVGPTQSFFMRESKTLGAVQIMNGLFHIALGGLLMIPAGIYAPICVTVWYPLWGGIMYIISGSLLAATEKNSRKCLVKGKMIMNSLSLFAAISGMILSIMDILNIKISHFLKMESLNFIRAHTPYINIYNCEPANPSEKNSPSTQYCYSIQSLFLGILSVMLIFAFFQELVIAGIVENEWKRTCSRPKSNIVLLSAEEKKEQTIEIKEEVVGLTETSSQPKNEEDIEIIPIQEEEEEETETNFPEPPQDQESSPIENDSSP

human CD20 [6] = biological target: T3, human CD20; test: cell-based or functional assay; remark: listed apart in the source
human CD20 [7] = biological target: T3, human CD20; test: cell-based or functional assay; remark: listed apart in the source
human CD20 [8] = biological target: T3, human CD20; test: cell-based or functional assay; remark: listed apart in the source
human Her3 = human Her3 (human, UniProt P21860 20-1342); test: cell-based or functional assay
human CD3 [9] = biological target: T2, human CD3; test: cell-based or functional assay; remark: listed apart in the source

T1 sequence (Q6UVK1 30-2322): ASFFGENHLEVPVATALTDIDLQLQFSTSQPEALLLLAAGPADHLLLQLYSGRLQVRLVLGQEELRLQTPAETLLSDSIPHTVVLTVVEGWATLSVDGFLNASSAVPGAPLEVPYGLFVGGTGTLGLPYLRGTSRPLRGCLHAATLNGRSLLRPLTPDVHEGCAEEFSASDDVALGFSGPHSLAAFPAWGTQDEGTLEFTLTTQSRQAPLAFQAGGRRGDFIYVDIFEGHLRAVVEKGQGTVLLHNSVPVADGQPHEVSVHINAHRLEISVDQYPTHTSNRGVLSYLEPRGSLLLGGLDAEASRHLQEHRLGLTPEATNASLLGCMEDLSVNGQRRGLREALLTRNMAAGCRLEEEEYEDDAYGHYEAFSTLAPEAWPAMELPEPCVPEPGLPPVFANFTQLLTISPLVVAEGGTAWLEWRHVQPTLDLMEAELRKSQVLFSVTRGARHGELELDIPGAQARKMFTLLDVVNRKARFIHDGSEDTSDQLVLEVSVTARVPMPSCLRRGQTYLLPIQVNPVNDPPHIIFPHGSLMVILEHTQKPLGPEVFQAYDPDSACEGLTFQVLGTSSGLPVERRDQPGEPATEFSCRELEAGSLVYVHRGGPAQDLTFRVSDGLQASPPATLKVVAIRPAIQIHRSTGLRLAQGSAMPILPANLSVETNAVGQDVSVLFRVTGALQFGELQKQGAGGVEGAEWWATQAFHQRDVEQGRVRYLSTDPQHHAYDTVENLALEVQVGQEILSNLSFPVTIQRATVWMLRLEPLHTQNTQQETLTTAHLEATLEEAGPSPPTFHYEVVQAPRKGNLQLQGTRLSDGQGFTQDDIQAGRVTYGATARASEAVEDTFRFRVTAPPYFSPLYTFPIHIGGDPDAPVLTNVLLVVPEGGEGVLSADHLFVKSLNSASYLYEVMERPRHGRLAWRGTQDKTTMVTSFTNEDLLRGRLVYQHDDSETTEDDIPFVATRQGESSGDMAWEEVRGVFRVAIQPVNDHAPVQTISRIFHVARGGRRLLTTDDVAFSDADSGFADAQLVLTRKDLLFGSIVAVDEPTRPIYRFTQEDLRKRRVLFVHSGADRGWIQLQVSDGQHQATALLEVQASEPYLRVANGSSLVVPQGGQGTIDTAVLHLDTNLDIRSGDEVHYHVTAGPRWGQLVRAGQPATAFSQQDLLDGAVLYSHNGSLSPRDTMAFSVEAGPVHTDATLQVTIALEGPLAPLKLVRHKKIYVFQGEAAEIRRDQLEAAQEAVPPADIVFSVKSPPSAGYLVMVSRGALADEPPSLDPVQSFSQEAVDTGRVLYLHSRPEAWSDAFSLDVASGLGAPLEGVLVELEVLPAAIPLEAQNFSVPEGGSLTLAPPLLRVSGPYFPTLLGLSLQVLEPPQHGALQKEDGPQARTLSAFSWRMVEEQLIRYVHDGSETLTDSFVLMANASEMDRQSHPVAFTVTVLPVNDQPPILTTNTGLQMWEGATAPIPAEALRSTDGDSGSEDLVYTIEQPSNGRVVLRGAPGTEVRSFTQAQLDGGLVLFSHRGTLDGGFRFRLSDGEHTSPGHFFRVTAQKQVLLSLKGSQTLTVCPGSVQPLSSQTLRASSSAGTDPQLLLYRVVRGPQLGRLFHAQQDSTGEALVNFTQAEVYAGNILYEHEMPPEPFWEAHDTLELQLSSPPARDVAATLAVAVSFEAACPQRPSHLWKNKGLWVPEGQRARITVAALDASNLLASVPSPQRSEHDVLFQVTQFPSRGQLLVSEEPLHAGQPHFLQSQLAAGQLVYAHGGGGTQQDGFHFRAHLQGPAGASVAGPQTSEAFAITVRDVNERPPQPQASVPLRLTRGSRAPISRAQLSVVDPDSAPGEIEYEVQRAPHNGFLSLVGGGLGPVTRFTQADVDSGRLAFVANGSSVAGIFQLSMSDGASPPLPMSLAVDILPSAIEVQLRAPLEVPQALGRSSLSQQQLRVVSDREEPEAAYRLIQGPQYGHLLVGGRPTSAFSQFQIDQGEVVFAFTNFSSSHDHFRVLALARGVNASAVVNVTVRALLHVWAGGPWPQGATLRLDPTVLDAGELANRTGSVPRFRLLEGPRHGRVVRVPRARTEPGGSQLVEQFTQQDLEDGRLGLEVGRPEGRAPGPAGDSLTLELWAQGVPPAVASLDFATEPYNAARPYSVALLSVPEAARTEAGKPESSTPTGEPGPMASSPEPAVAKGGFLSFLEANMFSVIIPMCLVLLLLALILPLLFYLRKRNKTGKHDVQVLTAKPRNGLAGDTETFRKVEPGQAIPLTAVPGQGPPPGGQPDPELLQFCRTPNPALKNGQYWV

B1: anti-MCSP/anti-CD3 "(Fab)2-CrossFab" molecule with charge modifications in the MCSP binders ((Fab)2-XFab-LC007cv) (bispecific antibody)
chain 1: EVQLQESGPGLVKPSQSLSLTCSVTGYSITSGYYWNWIRQFPGNKLEWMGYITYDGSNNYNPSLKNRISITRDTSKNQFFLKLNSVTTEDTATYYCADFDYWGQGTTLTVSSASTKGPSVFPLAPSSKSTSGGTAALGCLVEDYFPEPVTVSWNSGALTSGVHTFPAVLQSSGLYSLSSVVTVPSSSLGTQTYICNVNHKPSNTKVDEKVEPKSCDGGGGSGGGGSEVQLQESGPGLVKPSQSLSLTCSVTGYSITSGYYWNWIRQFPGNKLEWMGYITYDGSNNYNPSLKNRISITRDTSKNQFFLKLNSVTTEDTATYYCADFDYWGQGTTLTVSSASTKGPSVFPLAPSSKSTSGGTAALGCLVEDYFPEPVTVSWNSGALTSGVHTFPAVLQSSGLYSLSSVVTVPSSSLGTQTYICNVNHKPSNTKVDEKVEPKSCDGGGGSGGGGSDIQMTQSPSSLSASVGDRVTITCRASQDIRNYLNWYQQKPGKAPKLLIYYTSRLESGVPSRFSGSGSGTDYTLTISSLQPEDFATYYCQQGNTLPWTFGQGTKVEIKSSASTKGPSVFPLAPSSKSTSGGTAALGCLVKDYFPEPVTVSWNSGALTSGVHTFPAVLQSSGLYSLSSVVTVPSSSLGTQTYICNVNHKPSNTKVDKKVEPKSC
chain 2: EVQLVESGGGLVQPGGSLRLSCAASGYSFTGYTMNWVRQAPGKGLEWVALINPYKGVSTYNQKFKDRFTISVDKSKNTAYLQMNSLRAEDTAVYYCARSGYYGDSDWYFDVWGQGTLVTVSSASVAAPSVFIFPPSDEQLKSGTASVVCLLNNFYPREAKVQWKVDNALQSGNSQESVTEQDSKDSTYSLSSTLTLSKADYEKHKVYACEVTHQGLSSPVTKSFNRGEC
chain 3: DIVLTQSPSSLSASLGDRVTISCSASQGIRNYLNWYQQRPDGTVKLLIYYTSSLHSGVPSRFSGSGSGTDYSLTISNLEPEDIATYYCQQYSKLPWTFGGGTKLEIKRTVAAPSVFIFPPSDRKLKSGTASVVCLLNNFYPREAKVQWKVDNALQSGNSQESVTEQDSKDSTYSLSSTLTLSKADYEKHKVYACEVTHQGLSSPVTKSFNRGEC
notes: The chains are one heavy chain, the anti-MCSP Fab light chain (twice); No Fc domain
EC50 of tumor cell lysis (LDH release), MV-3 cells + human PBMCs, 24 h [1]: 0.0028 nM | EC50 of tumor cell lysis (LDH release), MV-3 cells + human PBMCs, 48 h [1]: 0.0086 nM | EC50 [2]: 2.3 nM | binding result (human CD3 [3]): binds

B2: anti-CD20/anti-CD3 TCB molecule H: "1+1 CrossMab" with charge modifications (VH/VL exchange in CD3 binder, charge modification in CD20 binder) (bispecific antibody, human IgG1, kappa, N297G)
heavy 1: not shown
heavy 2: QAVVTQEPSLTVSPGGTVTLTCGSSTGAVTTSNYANWVQEKPGQAFRGLIGGTNKRAPGTPARFSGSLLGGKAALTLSGAQPEDEAEYYCALWYSNLWVFGGGTKLTVLSSASTKGPSVFPLAPSSKSTSGGTAALGCLVKDYFPEPVTVSWNSGALTSGVHTFPAVLQSSGLYSLSSVVTVPSSSLGTQTYICNVNHKPSNTKVDKKVEPKSCDKTHTCPPCPAPELLGGPSVFLFPPKPKDTLMISRTPEVTCVVVDVSHEDPEVKFNWYVDGVEVHNAKTKPREEQYGSTYRVVSVLTVLHQDWLNGKEYKCKVSNKALPAPIEKTISKAKGQPREPQVYTLPPCRDELTKNQVSLWCLVKGFYPSDIAVEWESNGQPENNYKTTPPVLDSDGSFFLYSKLTVDKSRWQQGNVFSCSVMHEALHNHYTQKSLSLSP
light 1: DIVMTQTPLSLPVTPGEPASISCRSSKSLLHSNGITYLYWYLQKPGQSPQLLIYQMSNLVSGVPDRFSGSGSGTDFTLKISRVEAEDVGVYYCAQNLELPYTFGGGTKVEIKRTVAAPSVFIFPPSDRKLKSGTASVVCLLNNFYPREAKVQWKVDNALQSGNSQESVTEQDSKDSTYSLSSTLTLSKADYEKHKVYACEVTHQGLSSPVTKSFNRGEC
light 2: EVQLLESGGGLVQPGGSLRLSCAASGFTFSTYAMNWVRQAPGKGLEWVSRIRSKYNNYATYYADSVKGRFTISRDDSKNTLYLQMNSLRAEDTAVYYCVRHGNFGNSYVSWFAYWGQGTLVTVSSASVAAPSVFIFPPSDEQLKSGTASVVCLLNNFYPREAKVQWKVDNALQSGNSQESVTEQDSKDSTYSLSSTLTLSKADYEKHKVYACEVTHQGLSSPVTKSFNRGEC
EC50 of CD3 activation, Jurkat-NFAT reporter cells co-cultured with Z138 cells (luminescence, 6 h) (human CD3 [4]): 1 nM | EC50 24 h of tumor lysis, Ocly-18 cells (human CD20 [5]): 0.25 nM | EC50 24 h of tumor lysis, SU-DHL-5 cells (human CD20 [5]): 0.0697 nM | EC50 24 h of tumor lysis, SU-DHL-8 cells (human CD20 [5]): 0.219 nM | EC50 24 h of tumor lysis, Toledo cells (human CD20 [5]): 0.12 nM | EC50 24 h of tumor lysis, U2932 cells (human CD20 [5]): 0.0727 nM | EC50 of tumor cell lysis (LDH release), Z138 cells + human PBMCs, 21-24 h, panel A (human CD20 [6]): 0.0175 nM | EC50 24 h of CD4 T cell activation, Z138 cells (average of 3 donors) (human CD20 [7]): 0.122 nM | EC50 24 h of CD8 T cell activation, Z138 cells (average of 3 donors) (human CD20 [7]): 0.175 nM | EC50 24 h of tumor lysis, Z138 cells (average of 3 donors) (human CD20 [7]): 0.751 nM | EC50 24 h of B cell depletion in normal human whole blood (human CD20 [8]): 3.75 nM

B3: anti-Her3/anti-CD3 "2+1 IgG CrossFab" molecule with charge modifications (Her3 TCB) (bispecific antibody)
chain 1: not shown
chain 2: QVQLVQSGAEVKKPGASVKVSCKASGYTFRSSYISWVRQAPGQGLEWMGWIYAGTGSPSYNQKLQGRVTMTTDTSTSTAYMELRSLRSDDTAVYYCARHRDYYSNSLTYWGQGTLVTVSSASTKGPSVFPLAPSSKSTSGGTAALGCLVEDYFPEPVTVSWNSGALTSGVHTFPAVLQSSGLYSLSSVVTVPSSSLGTQTYICNVNHKPSNTKVDEKVEPKSCDKTHTCPPCPAPEAAGGPSVFLFPPKPKDTLMISRTPEVTCVVVDVSHEDPEVKFNWYVDGVEVHNAKTKPREEQYNSTYRVVSVLTVLHQDWLNGKEYKCKVSNKALGAPIEKTISKAKGQPREPQVCTLPPSRDELTKNQVSLSCAVKGFYPSDIAVEWESNGQPENNYKTTPPVLDSDGSFFLVSKLTVDKSRWQQGNVFSCSVMHEALHNHYTQKSLSLSP
chain 3: not shown
light: B2 light 2
EC50 of Caspase 3/7 activity (luminescence) in KPL-4-Caspase-3/7 GloSensor target cells + PBMCs, 6.5 h (human Her3): 0.0007 nM | EC50 of tumor cell lysis (LDH release), KPL4 cells + human PBMCs, 24 h (human Her3): 0.00254 nM | EC50 of tumor cell lysis (LDH release), KPL4 cells + human PBMCs, 48 h (human Her3): 0.00053 nM | EC50 of activation of Jurkat-NFAT reporter cells co-cultured with KPL4 cells (luminescence, 5 h) (human CD3 [9]): 0.022 nM

B4: anti-Her2/anti-CD3 "2+1 IgG CrossFab, inverted" molecule with charge modifications (Her2 TCB) (bispecific antibody)
chain 1: not shown
chain 2: not shown
chain 3: not shown
light: B2 light 2
EC50 of activation of Jurkat-NFAT reporter cells co-cultured with KPL4 cells (luminescence, 5 h) (human CD3 [9]): 0.0344 nM

B5: anti-CD20/anti-CD3 TCB molecule C: "2+1 IgG CrossFab" with charge modifications (VH/VL exchange in CD3 binder, charge modification in CD20 binders) (bispecific antibody)
heavy 1: not shown
heavy 2: QVQLVQSGAEVKKPGSSVKVSCKASGYAFSYSWINWVRQAPGQGLEWMGRIFPGDGDTDYNGKFKGRVTITADKSTSTAYMELSSLRSEDTAVYYCARNVFDGYWLVYWGQGTLVTVSSASTKGPSVFPLAPSSKSTSGGTAALGCLVEDYFPEPVTVSWNSGALTSGVHTFPAVLQSSGLYSLSSVVTVPSSSLGTQTYICNVNHKPSNTKVDEKVEPKSCDKTHTCPPCPAPEAAGGPSVFLFPPKPKDTLMISRTPEVTCVVVDVSHEDPEVKFNWYVDGVEVHNAKTKPREEQYNSTYRVVSVLTVLHQDWLNGKEYKCKVSNKALGAPIEKTISKAKGQPREPQVCTLPPSRDELTKNQVSLSCAVKGFYPSDIAVEWESNGQPENNYKTTPPVLDSDGSFFLVSKLTVDKSRWQQGNVFSCSVMHEALHNHYTQKSLSLSP
light 1: B2 light 1
light 2: B2 light 2
EC50 of tumor cell lysis (LDH release), Z138 cells + human PBMCs, 21-24 h, panel B (human CD20 [6]): 0.0433 nM

B6: anti-CD20/anti-CD3 TCB molecule A: "2+1 IgG CrossFab, inverted" without charge modifications (CH1/CL exchange in CD3 binder) (bispecific antibody)
chain 1: not shown
chain 2: B5 heavy 2 with E149K, E215K
chain 3: QAVVTQEPSLTVSPGGTVTLTCGSSTGAVTTSNYANWVQEKPGQAFRGLIGGTNKRAPGTPARFSGSLLGGKAALTLSGAQPEDEAEYYCALWYSNLWVFGGGTKLTVLSSASTKGPSVFPLAPSSKSTSGGTAALGCLVKDYFPEPVTVSWNSGALTSGVHTFPAVLQSSGLYSLSSVVTVPSSSLGTQTYICNVNHKPSNTKVDKKVEPKSC
chain 4: B2 light 1 with R128E, K129Q
EC50 of tumor cell lysis (LDH release), Z138 cells + human PBMCs, 21-24 h, panel A (human CD20 [6]): 0.00076 nM
